± gives the uncertainty stated by the source.
B1: Nuclear receptor subfamily 4 group A member 2, residues 260 to 336; numbered along this chain, P43354 (parent)
chain: EGLCAVCGDNAACQHYGVRTCEGCKGFFKRTVQKNAKYVCLANKNCPVDKRRRNRCQYCRFQKCLAVGMVKEVVRTD

Variants of: B1
Test: abundance fitness (aPCA) (normalised: wild type 0, dead -1); higher = more abundant; growth selection in yeast, the domain comes from the species named
Conditions: Homo sapiens

**Q.** Which abundance fitness does the source give for EGLCAVCGDNAACQHYGVRTCEGCKGFFKRTVQKNAKYVCLANKNCPVDKRRRNRCQYCRFQKCLAHGMVKEVVRTD [V67H] here?
**A.** Its abundance fitness is -0.088 ± 0.3.

**Q.** Which abundance fitness does the source give for EGLCAVCGDNAACQHYGVRTCEGCKGFFKRTVQKNAKYVCLANKNCPVDKRRRNRCQYCRFQKCLALGMVKEVVRTD [V67L] here?
**A.** Its abundance fitness is -0.078 ± 0.058.

**Q.** With EGLCAVCGDNAACQHYGVRTCEGCKGFFKRTVQKNAKYVCLANKNCPVDKRRRNRCQYCRFQKCLAEGMVKEVVRTD [V67E] as the variant, how does the abundance fitness read?
**A.** Its abundance fitness is -0.017 ± 0.077.

**Q.** For EGLCAVCGDNAACQHYGVRTCEGCKGFFKRTVQKNAKYVCLANKNCPVDKRRRNRCQYCRFQKCLAAGMVKEVVRTD [V67A], which abundance fitness is on record?
**A.** The abundance fitness was -0.029 ± 0.063.

**Q.** For EGLCAVCGDNAACQHYGVRTCEGCKGFFKRTVQKNAKYVCLANKNCPVDKRRRNRCQYCRFQKCLACGMVKEVVRTD [V67C], which abundance fitness is on record?
**A.** The abundance fitness was -0.114 ± 0.072.

**Q.** Which abundance fitness does the source give for EGLCAVCGDNAACQHYGVRTCEGCKGFFKRTVQKNAKYVCLANKNCPVDKRRRNRCQYCRFQKCLAWGMVKEVVRTD [V67W] here?
**A.** The abundance fitness was -0.706 ± 0.098.

**Q.** Which abundance fitness does the source give for EGLCAVCGDNAACQHYGVRTCEGCKGFFKRTVQKNAKYVCLANKNCPVDKRRRNRCQYCRFQKCLARGMVKEVVRTD [V67R] here?
**A.** The abundance fitness was -0.134 ± 0.073.

**Q.** For EGLCAVCGDNAACQHYGVRTCEGCKGFFKRTVQKNAKYVCLANKNCPVDKRRRNRCQYCRFQKCLATGMVKEVVRTD [V67T], which abundance fitness is on record?
**A.** The abundance fitness was -0.06 ± 0.14.

**Q.** With EGLCAVCGDNAACQHYGVRTCEGCKGFFKRTVQKNAKYVCLANKNCPVDKRRRNRCQYCRFQKCLADGMVKEVVRTD [V67D] as the variant, how does the abundance fitness read?
**A.** Its abundance fitness is -0.728 ± 0.31.

**Q.** With EGLCAVCGDNAACQHYGVRTCEGCKGFFKRTVQKNAKYVCLANKNCPVDKRRRNRCQYCRFQKCLAGGMVKEVVRTD [V67G] as the variant, how does the abundance fitness read?
**A.** Its abundance fitness is -0.261 ± 0.04.

**Q.** With EGLCAVCGDNAACQHYGVRTCEGCKGFFKRTVQKNAKYVCLANKNCPVDKRRRNRCQYCRFQKCLAIGMVKEVVRTD [V67I] as the variant, how does the abundance fitness read?
**A.** The abundance fitness was 0.058 ± 0.12.

**Q.** For EGLCAVCGDNAACQHYGVRTCEGCKGFFKRTVQKNAKYVCLANKNCPVDKRRRNRCQYCRFQKCLAFGMVKEVVRTD [V67F], which abundance fitness is on record?
**A.** The abundance fitness was -0.449 ± 0.13.

**Q.** With EGLCAVCGDNAACQHYGVRTCEGCKGFFKRTVQKNAKYVCLANKNCPVDKRRRNRCQYCRFQKCLAKGMVKEVVRTD [V67K] as the variant, how does the abundance fitness read?
**A.** Its abundance fitness is 0.086 ± 0.23.

**Q.** With EGLCAVCGDNAACQHYGVRTCEGCKGFFKRTVQKNAKYVCLANKNCPVDKRRRNRCQYCRFQKCLASGMVKEVVRTD [V67S] as the variant, how does the abundance fitness read?
**A.** Its abundance fitness is -0.097 ± 0.11.

**Q.** With EGLCAVCGDNAACQHYGVRTCEGCKGFFKRTVQKNAKYVCLANKNCPVDKRRRNRCQYCRFQKCLAMGMVKEVVRTD [V67M] as the variant, how does the abundance fitness read?
**A.** Its abundance fitness is -0.035 ± 0.15.

**Q.** Which abundance fitness does the source give for EGLCAVCGDNAACQHYGVRTCEGCKGFFKRTVQKNAKYVCLANKNCPVDKRRRNRCQYCRFQKCLAVEMVKEVVRTD [G68E] here?
**A.** The abundance fitness was -0.63 ± 0.2.

**Q.** Which abundance fitness does the source give for EGLCAVCGDNAACQHYGVRTCEGCKGFFKRTVQKNAKYVCLANKNCPVDKRRRNRCQYCRFQKCLAVFMVKEVVRTD [G68F] here?
**A.** The abundance fitness was -0.436 ± 0.12.

**Q.** With EGLCAVCGDNAACQHYGVRTCEGCKGFFKRTVQKNAKYVCLANKNCPVDKRRRNRCQYCRFQKCLAVCMVKEVVRTD [G68C] as the variant, how does the abundance fitness read?
**A.** The abundance fitness was -0.489 ± 0.083.

**Q.** For EGLCAVCGDNAACQHYGVRTCEGCKGFFKRTVQKNAKYVCLANKNCPVDKRRRNRCQYCRFQKCLAVAMVKEVVRTD [G68A], which abundance fitness is on record?
**A.** Its abundance fitness is -0.26 ± 0.13.

**Q.** With EGLCAVCGDNAACQHYGVRTCEGCKGFFKRTVQKNAKYVCLANKNCPVDKRRRNRCQYCRFQKCLAVIMVKEVVRTD [G68I] as the variant, how does the abundance fitness read?
**A.** The abundance fitness was -0.481 ± 0.28.

**Q.** With EGLCAVCGDNAACQHYGVRTCEGCKGFFKRTVQKNAKYVCLANKNCPVDKRRRNRCQYCRFQKCLAVDMVKEVVRTD [G68D] as the variant, how does the abundance fitness read?
**A.** Its abundance fitness is -0.403 ± 0.15.

**Q.** Which abundance fitness does the source give for EGLCAVCGDNAACQHYGVRTCEGCKGFFKRTVQKNAKYVCLANKNCPVDKRRRNRCQYCRFQKCLAVLMVKEVVRTD [G68L] here?
**A.** Its abundance fitness is -0.589 ± 0.11.

**Q.** Which abundance fitness does the source give for EGLCAVCGDNAACQHYGVRTCEGCKGFFKRTVQKNAKYVCLANKNCPVDKRRRNRCQYCRFQKCLTVGMVKEVVRTD [A66T] here?
**A.** The abundance fitness was -0.223 ± 0.24.

**Q.** For EGLCAVCGDNAACQHYGVRTCEGCKGFFKRTVQKNAKYVCLANKNCPVDKRRRNRCQYCRFQKCLMVGMVKEVVRTD [A66M], which abundance fitness is on record?
**A.** Its abundance fitness is -0.032 ± 0.2.

**Q.** For EGLCAVCGDNAACQHYGVRTCEGCKGFFKRTVQKNAKYVCLANKNCPVDKRRRNRCQYCRFQKCLCVGMVKEVVRTD [A66C], which abundance fitness is on record?
**A.** The abundance fitness was -0.21 ± 0.066.

**Q.** For EGLCAVCGDNAACQHYGVRTCEGCKGFFKRTVQKNAKYVCLANKNCPVDKRRRNRCQYCRFQKCLVVGMVKEVVRTD [A66V], which abundance fitness is on record?
**A.** Its abundance fitness is -0.17 ± 0.051.

**Q.** Which abundance fitness does the source give for EGLCAVCGDNAACQHYGVRTCEGCKGFFKRTVQKNAKYVCLANKNCPVDKRRRNRCQYCRFQKCLDVGMVKEVVRTD [A66D] here?
**A.** Its abundance fitness is 0.135 ± 0.11.

**Q.** Which abundance fitness does the source give for EGLCAVCGDNAACQHYGVRTCEGCKGFFKRTVQKNAKYVCLANKNCPVDKRRRNRCQYCRFQKCLIVGMVKEVVRTD [A66I] here?
**A.** Its abundance fitness is -0.099 ± 0.28.

**Q.** Which abundance fitness does the source give for EGLCAVCGDNAACQHYGVRTCEGCKGFFKRTVQKNAKYVCLANKNCPVDKRRRNRCQYCRFQKCLNVGMVKEVVRTD [A66N] here?
**A.** The abundance fitness was 0.101 ± 0.45.

**Q.** Which abundance fitness does the source give for EGLCAVCGDNAACQHYGVRTCEGCKGFFKRTVQKNAKYVCLANKNCPVDKRRRNRCQYCRFQKCLRVGMVKEVVRTD [A66R] here?
**A.** Its abundance fitness is -0.114 ± 0.079.

**Q.** For EGLCAVCGDNAACQHYGVRTCEGCKGFFKRTVQKNAKYVCLANKNCPVDKRRRNRCQYCRFQKCLWVGMVKEVVRTD [A66W], which abundance fitness is on record?
**A.** Its abundance fitness is -0.282 ± 0.074.

**Q.** With EGLCAVCGDNAACQHYGVRTCEGCKGFFKRTVQKNAKYVCLANKNCPVDKRRRNRCQYCRFQKCLLVGMVKEVVRTD [A66L] as the variant, how does the abundance fitness read?
**A.** The abundance fitness was 0.005 ± 0.059.

**Q.** With EGLCAVCGDNAACQHYGVRTCEGCKGFFKRTVQKNAKYVCLANKNCPVDKRRRNRCQYCRFQKCLFVGMVKEVVRTD [A66F] as the variant, how does the abundance fitness read?
**A.** Its abundance fitness is -0.228 ± 0.14.

**Q.** Which abundance fitness does the source give for EGLCAVCGDNAACQHYGVRTCEGCKGFFKRTVQKNAKYVCLANKNCPVDKRRRNRCQYCRFQKCLGVGMVKEVVRTD [A66G] here?
**A.** Its abundance fitness is -0.013 ± 0.042.

**Q.** For EGLCAVCGDNAACQHYGVRTCEGCKGFFKRTVQKNAKYVCLANKNCPVDKRRRNRCQYCRFQKCLEVGMVKEVVRTD [A66E], which abundance fitness is on record?
**A.** The abundance fitness was -0.051 ± 0.14.

**Q.** For EGLCAVCGDNAACQHYGVRTCEGCKGFFKRTVQKNAKYVCLANKNCPVDKRRRNRCQYCRFQKCLKVGMVKEVVRTD [A66K], which abundance fitness is on record?
**A.** The abundance fitness was -0.2 ± 0.36.

Source: the Human Domainome abundance scans (Beltran et al. 2025)
